Data taken from PMC10156912, “Mechanism of assembly, activation and lysine selection by the SIN3B histone deacetylase complex” (Nature Communications, 2023).

B1: SIN3B isoform 2 (natural protein, human, UniProt O75182-2 1-1130, looked up)
chain: MAHAGGGSGGSGAGGPAGRGLSGARWGRSGSAGHEKLPVHVEDALTYLDQVKIRFGSDPATYNGFLEIMKEFKSQSIDTPGVIRRVSQLFHEHPDLIVGFNAFLPLGYRIDIPKNGKLNIQSPLTSQENSHNHGDGAEDFKQQVPYKEDKPQVPLESDSVEFNNAISYVNKIKTRFLDHPEIYRSFLEILHTYQKEQLNTRGRPFRGMSEEEVFTEVANLFRGQEDLLSEFGQFLPEAKRSLFTGNGPCEMHSVQKNEHDKTPEHSRKRSRPSLLRPVSAPAKKKMKLRGTKDLSIAAVGKYGTLQEFSFFDKVRRVLKSQEVYENFLRCIALFNQELVSGSELLQLVSPFLGKFPELFAQFKSFLGVKELSFAPPMSDRSGDGISREIDYASCKRIGSSYRALPKTYQQPKCSGRTAICKEVLNDTWVSFPSWSEDSTFVSSKKTPYEEQLHRCEDERFELDVVLETNLATIRVLESVQKKLSRMAPEDQEKFRLDDSLGGTSEVIQRRAIYRIYGDKAPEIIESLKKNPVTAVPVVLKRLKAKEEEWREAQQGFNKIWREQYEKAYLKSLDHQAVNFKQNDTKALRSKSLLNEIESVYDEHQEQHSEGRSAPSSEPHLIFVYEDRQILEDAAALISYYVKRQPAIQKEDQGTIHQLLHQFVPSLFFSQQLDLGASEESADEDRDSPQGQTTDPSERKKPAPGPHSSPPEEKGAFGDAPATEQPPLPPPAPHKPLDDVYSLFFANNNWYFFLRLHQTLCSRLLKIYRQAQKQLLEYRTEKEREKLLCEGRREKGSDPAMELRLKQPSEVELEEYYPAFLDMVRSLLEGSIDPTQYEDTLREMFTIHAYVGFTMDKLVQNIARQLHHLVSDDVCLKVVELYLNEKKRGAAGGNLSSRCVRAARETSYQWKAERCMADENCFKVMFLQRKGQVIMTIELLDTEEAQTEDPVEVQHLARYVEQYVGTEGASSSPTEGFLLKPVFLQRNLKKFRRRWQSEQARALRGEARSSWKRLVGVESACDVDCRFKLSTHKMVFIVNSEDYMYRRGTLCRAKQVQPLVLLRHHQHFEEWHSRWLEDNVTVEAASLVQDWLMGEEDEDMVPCKTLCETVHVHGLPVTRYRVQYSRRPASP
notes: SIN3B isoform 2, human, UniProt O75182-2; codon-optimised cDNA; numbers count on: isoform 2 (O75182-2); Tag removed with 3C protease; RbBP7 was co-expressed to keep SIN3B soluble; also called SIN3 scaffold subunit; corepressor SIN3B; source: High Five insect cells, co-infected with baculoviruses of each subunit; co-purified (Strep-Tactin, GSTrap, Superose 6 SEC); not shown: StrepII, C-terminal, …
B2: PHF12 (full-length) (natural protein, human, UniProt Q96QT6 1-1004, looked up)
chain: MWEKMETKTIVYDLDTSGGLMEQIQALLAPPKTDEAEKRSRKPEKEPRRSGRATNHDSCDSCKEGGDLLCCDHCPAAFHLQCCNPPLSEEMLPPGEWMCHRCTVRRKKREQKKELGHVNGLVDKSGKRTTSPSSDTDLLDRSASKTELKAIAHARILERRASRPGTPTSSASTETPTSEQNDVDEDIIDVDEEPVAAEPDYVQPQLRRPFELLIAAAMERNPTQFQLPNELTCTTALPGSSKRRRKEETTGKNVKKTQHELDHNGLVPLPVKVCFTCNRSCRVAPLIQCDYCPLLFHMDCLEPPLTAMPLGRWMCPNHIEHVVLNQKNMTLSNRCQVFDRFQDTVSQHVVKVDFLNRIHKKHPPNRRVLQSVKRRSLKVPDAIKSQYQFPPPLIAPAAIRDGELICNGIPEESQMHLLNSEHLATQAEQQEWLCSVVALQCSILKHLSAKQMPSHWDSEQTEKADIKPVIVTDSSVTTSLQTADKTPTPSHYPLSCPSGISTQNSLSCSPPHQSPALEDIGCSSCAEKSKKTPCGTANGPVNTEVKANGPHLYSSPTDSTDPRRLPGANTPLPGLSHRQGWPRPLTPPAAGGLQNHTVGIIVKTENATGPSSCPQRSLVPVPSLPPSIPSSCASIENTSTLQRKTVQSQIGPPLTDSRPLGSPPNATRVLTPPQAAGDGILATTANQRFSSPAPSSDGKVSPGTLSIGSALTVPSFPANSTAMVDLTNSLRAFMDVNGEIEINMLDEKLIKFLALQRIHQLFPSRVQPSPGSVGTHQLASGGHHIEVQRKEVQARAVFYPLLGLGGAVNMCYRTLYIGTGADMDVCLTNYGHCNYVSGKHACIFYDENTKHYELLNYSEHGTTVDNVLYSCDFSEKTPPTPPSSIVAKVQSVIRRRRHQKQDEEPSEEAAMMSSQAQGPQRRPCNCKASSSSLIGGSGAGWEGTALLHHGSYIKLGCLQFVFSITEFATKQPKGDASLLQDGVLAEKLSLKPHQGPVLRSNSVP
notes: PHF12, human, full-length; subunit of the SIN3B^FL sample; also called plant homeodomain (PHD) containing protein PHF12; source: High Five insect cells, co-infected with baculoviruses of each subunit; co-purified (Strep-Tactin, GSTrap, Superose 6 SEC)
B3: PHF12^ΔC-terminus (residues 1-502) (domain or fragment, human, UniProt Q96QT6 1-502, looked up)
chain: MWEKMETKTIVYDLDTSGGLMEQIQALLAPPKTDEAEKRSRKPEKEPRRSGRATNHDSCDSCKEGGDLLCCDHCPAAFHLQCCNPPLSEEMLPPGEWMCHRCTVRRKKREQKKELGHVNGLVDKSGKRTTSPSSDTDLLDRSASKTELKAIAHARILERRASRPGTPTSSASTETPTSEQNDVDEDIIDVDEEPVAAEPDYVQPQLRRPFELLIAAAMERNPTQFQLPNELTCTTALPGSSKRRRKEETTGKNVKKTQHELDHNGLVPLPVKVCFTCNRSCRVAPLIQCDYCPLLFHMDCLEPPLTAMPLGRWMCPNHIEHVVLNQKNMTLSNRCQVFDRFQDTVSQHVVKVDFLNRIHKKHPPNRRVLQSVKRRSLKVPDAIKSQYQFPPPLIAPAAIRDGELICNGIPEESQMHLLNSEHLATQAEQQEWLCSVVALQCSILKHLSAKQMPSHWDSEQTEKADIKPVIVTDSSVTTSLQTADKTPTPSHYPLSCPSGIST
notes: PHF12, human, residues 1-502; lacks the poorly conserved and unstructured C-terminus; subunit of the SIN3B complex sample; also called PHF12^∆C-terminus; PHF12 residues 1-502; source: High Five insect cells, co-infected with baculoviruses of each subunit; co-purified (Strep-Tactin, GSTrap, Superose 6 SEC)

Legend:
Details in all cases: both partners purified
HDAC2 = target: T1, HDAC2 (human, UniProt Q92769 1-488); assay: cryo-EM structure; apo SIN3B complex; SIN3B^FL sample (full-length PHF12, 3.4 Å), SIN3B complex sample (PHF12 1-502, 3.7 Å) and SIN3B^core map (2.8 Å); subunits co-expressed with RbBP7 and co-purified, GraFix (glutaraldehyde) treated
T1 construct: HDAC2, human; codon-optimised cDNA; No tag is named for HDAC2; also called histone deacetylase 2; catalytic HDAC module; source: High Five insect cells, co-infected with baculoviruses of each subunit; co-purified (Strep-Tactin, GSTrap, Superose 6 SEC)

[1] = target: T2, MORF4L1 (mortality factor 4-like 1) (human, UniProt Q9UBU8 1-362); assay: as above
T2 construct: MORF4L1, human; codon-optimised cDNA; Tag removed with 3C protease; also called MRG and chromo domain-containing protein; source: High Five insect cells, co-infected with baculoviruses of each subunit; co-purified (Strep-Tactin, GSTrap, Superose 6 SEC); not shown: GST, N-terminal, cleaved

SIN3B isoform 2 [2] = target: B1; assay: as above
SIN3B isoform 2 [3] = target: B1; assay: cross-linking; XL-MS: freshly purified SIN3B complex at 1.7 μM with DSSO, on ice for 10 min, quenched with Tris pH 8, trypsin digest, LC-MS

T1 sequence (Q92769 whole entry): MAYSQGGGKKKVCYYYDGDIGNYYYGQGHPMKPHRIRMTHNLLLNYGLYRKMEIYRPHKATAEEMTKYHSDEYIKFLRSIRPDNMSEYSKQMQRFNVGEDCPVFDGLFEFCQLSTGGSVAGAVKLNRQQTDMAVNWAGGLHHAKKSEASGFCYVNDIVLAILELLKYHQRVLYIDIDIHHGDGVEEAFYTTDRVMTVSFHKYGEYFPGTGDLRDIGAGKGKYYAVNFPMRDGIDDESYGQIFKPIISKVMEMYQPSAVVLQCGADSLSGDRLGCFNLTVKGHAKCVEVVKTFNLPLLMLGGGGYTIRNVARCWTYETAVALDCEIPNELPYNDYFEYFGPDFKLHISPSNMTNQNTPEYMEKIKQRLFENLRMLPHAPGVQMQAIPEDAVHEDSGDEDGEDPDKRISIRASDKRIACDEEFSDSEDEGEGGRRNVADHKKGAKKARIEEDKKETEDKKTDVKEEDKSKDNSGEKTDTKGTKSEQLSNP
T2 sequence (Q9UBU8 whole entry, the tested form may be a part): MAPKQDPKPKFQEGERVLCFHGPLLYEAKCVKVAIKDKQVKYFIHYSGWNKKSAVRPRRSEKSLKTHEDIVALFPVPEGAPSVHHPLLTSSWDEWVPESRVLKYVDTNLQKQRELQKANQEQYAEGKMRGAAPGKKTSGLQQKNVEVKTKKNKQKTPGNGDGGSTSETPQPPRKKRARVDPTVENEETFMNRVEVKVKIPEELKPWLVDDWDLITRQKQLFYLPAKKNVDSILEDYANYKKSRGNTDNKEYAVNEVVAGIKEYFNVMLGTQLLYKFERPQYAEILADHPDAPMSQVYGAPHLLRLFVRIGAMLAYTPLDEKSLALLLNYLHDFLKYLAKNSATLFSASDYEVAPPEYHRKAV

Row | Binder | stoichiometry N (HDAC2) | stoichiometry N [1] | stoichiometry N (SIN3B isoform 2 [2]) | binding result (SIN3B isoform 2 [3])
1 | B1 | 1 | – | – | –
2 | B2 | 1 | 1 | 1 | –
3 | B3 | – | – | – | binds
